Marks after values point to notes of the source that are not given here.
Assays:
[1] = test system: MCF-7 human breast cancer cells; test: 3H-Thymidine incorporation; format: cell-based
Description: Cell studies. MCF-7 human breast cancer cells were maintained in MEM alpha ribonucleic acid-free medium supplemented with 10% foetal bovine serum, 50 Unit/ml penicillin sodium, 50 μg/ml streptomycin sulfate and 2 mM L-glutamine at 37C in 5% CO2 humidified environment.
3H-Thymidine incorporation: Experiments were carried out in 48-well plates, at 70% confluence. After a 20-h incubation in serum-free medium supplemented with 0.1% BSA, the experimental conditions were added for a further 24 h, with ^3H-thymidine (1 μCi/ml) added for the last 4 h. Cells were then washed with ice-cold 0.9% NaCl three times and incubated with ice-cold 5% TCA for 15 min at 22 C. The fixed nucleotides were solubilized in 0.1M NaOH at 22 C and subjected to liquid scintillation counting.
(§1) Statistical analyses. The effect of IGF-II and IGFBP-1 in muscle cell culture was analyzed by two-way ANOVA. Where significant differences were observed, comparisons were made using the Tukey test. In the study using MCF-7 breast cancer cells the Wolcoxon Matched Pairs test was used. Statistical significance was set at P<0.05.

IGF-II = IGF-II (Homo sapiens, UniProt P01344); test: BIAcore analysis over IGF-II biosensor surface; format: binding; set-up: IGF-I, IGF-II and des(1-3)IGF-I were immobilized on the sensor chip by amine coupling; settings: for kd (rate of dissociation, over 261-360 s) / ks (rate of association, over 21-120 s): mean ± SEM
Description: (§2) Recombinant pIGFBP-1 was analyzed across IGF-I (A, C) and IGF-II (B, D) biosensor surfaces. A concentration range of 50, 100, 200, 400 nM was analyzed at a flow rate of 10 μl/min. A,B: Mean sensorgrams for 400 nM IGFBP-1 (intact, n=3) and 200 nM IGFBP-1, intact (0 h, n=4) and after 2-h (n=5) and 4-h (n=3) incubations with partially purified azurocidin in a protease:substrate ratio of 1:3 500 for 2 h at 37 C. C,D: The rate of association (ks), the absolute value of the slope (dRU/dt versus RU) over the linear initial association phase (21-120 s), is shown for pIGFBP-1, intact (closed circles), and after incubation with partially purified azurocidin for 2 h at 37 C (open circles); and
(§3) Instrument and reagents (buffers, chemicals for activating and deactivated) were purchased from BIAcore (Uppsala, Sweden). IGF-I, IGF-II and des(1-3)IGF-I were immobilized on the sensor chip by amine coupling and deactivated with 0.1M ethanolamine. A reference flow cell was also prepared to correct for background and bulk refractive index contribution. After equilibration buffer to achieve a stable baseline, binding experiments was at 22 C in 2 separate experiments with the samples injected in random order. 40 μl of each sample was injected over the sensor surface at a rate of 10 μl/min (association period), followed by a 6 min wash with buffer (dissociation period). The sensor surface was regenerated with 20 μl of 100 mM HCl and washed for 6 min before the next sample. We used a 1:1 Langmuir binding interaction model for kinetic analysis using the BIAcore software and GraphPad Prism (GraphPad Software Inc, San Diego, Calif.).

IGF-I [2] = molecular target: T1, IGF-I (Homo sapiens, UniProt P05019); test: BIAcore analysis over IGF-I biosensor surface; format: binding; set-up: purchased Kabi Pharmacia (Sweden), donated; settings: for kd (rate of dissociation, over 261-360 s) / ks (rate of association, over 21-120 s): mean ± SEM; for predicted maximum response for interaction with IGF-I: based on initial rate of association (21-120 s), proteolysed = 2-h time point
Description: as §2, §3
Target sequence in this assay (P05019 49-118 limits assumed): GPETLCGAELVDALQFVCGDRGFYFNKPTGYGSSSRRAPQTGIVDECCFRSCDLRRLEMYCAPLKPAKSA

des(1-3)IGF-I = molecular target: T2, des(1-3)IGF-I (Homo sapiens, UniProt P05019); test: BIAcore analysis over des(1-3)IGF-I biosensor surface; format: binding; settings: 200 nM, 2-h and 4-h incubations with partially purified azurocidin
T2 construct: IGF-I, IGF-II and des(1-3)IGF-I were immobilized on the sensor chip by amine coupling; purchased GroPep (Adelaide, Australia)
Description: Recombinant pIGFBP-1 was analyzed across a des(1-3) IGF-I biosensor surfaces with a concentration range of 50, 100, 200, 400 nM, at a flow rate of 10 μl/min. The mean sensorgrams are shown for 400 nM IGFBP-1 (intact, n=3) and 200 nM IGFBP-1, intact (0 h, n=4) and after 2-h (n=5) and 4-h (n=3) incubations with partially purified azurocidin in a protease:substrate ratio of 1:3 500 for 2 h at 37 C.
as §3

[3] = test system: primary human skeletal myotubes; test: 2-Deoxyglucose transport (glucose uptake); format: cell-based; settings: for effect on glucose uptake alone: absence of exogenous IGF-II, 80 ng/ml
Description: Primary human skeletal myotubes were incubated under serum-free conditions for 24 h. Glucose uptake was determined as described in the Methods. The results are the mean±SEM of four experiments using cells from different individuals each with 3 replicates; and are expressed as the percentage of uptake in the absence of IGF-II or IGFBP-1 for each. The effect of IGF-II is shown in the hatched bars. The effect of pIGFBP-1 on stimulation of glucose uptake by 10 ng/ml IGF-II was analyzed by 2-way ANOVA for each of the 20 ng/ml and 80 ng/ml concentrations; *, P<0.01, **, P<0.001, compared to no IGF-II; ††, P<0.001, compared to no IGFBP-1 or intact IGFBP-1.
Human skeletal muscle cells were isolated, with approval from the local Ethics Committee, from the muscle biopsies by trypsin digestion and were grown to confluent myoblasts and differentiated into myotubes as previously described in detail (Bouzakri et al, Diabetes, 52, 1319-1325, 2003). Muscle from 4 different subjects were individually minced before being incubated for 30 min in 5 ml of trypsin-EDTA (Invitrogen, Carlsbad, Calif.) at 37° C. under agitation. After being centrifuged (150 g), the pellet was rinsed several times in PBS. Cells were first preplated for 1 h to eliminate rapidly adherent fibroblasts. The remaining cells were then cultured in a growth medium composed of HAM F-10 supplemented with 20% fetal bovine serum (FBS; Invitrogen Stockholm, Sweden), and 1% antibiotics (Invitrogen Stockholm, Sweden). Cells were plated in 6 wells plates and cultured in growth medium at 37° C. until confluence. Differentiation into myotubes was induced by changing the medium to Dulbecco's modified Eagle's medium supplemented with 2% FBS, and 1% antibiotics.
2-Deoxyglucose transport: Glucose uptake was performed as previously described for primary human muscle cells (Bouzakri et al, Diabetologia, 47, 1314-1323, 2004). After 24-h serum starvation, myotubes were pre-incubated with or without IGF-II (10 ng/ml) and IGF-II+IGFBP-1 (intact or cleaved at 20 or 80 ng/ml) for 90 min. IGF-II and IGFBP-1 were mixed 30 min before the experiments. Cells were then washed four times with pre-warmed buffer (150 mmol/l NaCl, […] KCl, 1.2 mmol/l MgSO4, 1.2 mmol/l CaCL2, 2.5 mmol/l NaH2PO4, 10 mmol/l HEPES, pH 7.4) and glucose uptake was measured for 15 min using [3H]2-deoxyglucose (50 μmol/l, 14,800 Bq/well). Results were expressed as the percentage of glucose uptake in the absence of IGF-II or IGFBP-1.
as §1

azurocidin = molecular target: T3, azurocidin (Homo sapiens, UniProt P20160); test: Stability of IGFBP-1 fragments generated in the presence of azurocidin; format: biochemical
T3 construct: from tissue
T3 sequence (P20160 27-248): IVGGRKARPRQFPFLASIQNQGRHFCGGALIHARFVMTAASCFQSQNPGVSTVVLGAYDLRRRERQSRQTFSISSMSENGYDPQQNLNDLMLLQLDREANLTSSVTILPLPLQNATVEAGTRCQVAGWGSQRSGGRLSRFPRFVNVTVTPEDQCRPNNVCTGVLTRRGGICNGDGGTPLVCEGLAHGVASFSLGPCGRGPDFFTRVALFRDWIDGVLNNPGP

IGF-I [4] = molecular target: T1, IGF-I; settings: liver-secreted phosphoprotein, after dephosphorylation; cited from earlier work
Target sequence in this assay (P05019 49-118): as the sequence (P05019 49-118 limits assumed) above

[5] = IGFBP-1 200 nM, proteolysis 2 h
[6] = IGFBP-1 200 nM, proteolysis 2 h by azurocidin
[7] = IGFBP-1 200 nM, proteolysis 4 h
[8] = IGFBP-1 200 nM, proteolysis 4 h by azurocidin
[9] = IGF-I surface, IGFBP-1 200 nM, proteolysis 2 h by azurocidin
[10] = IGF-I surface, IGFBP-1 200 nM, proteolysis 4 h by azurocidin
[11] = IGF-II 10 ng/ml + IGFBP-1 20 or 80 ng/ml
[12] = IGFBP-1 200 nM, proteolysis 0 h
[13] = IGFBP-1 400 nM, proteolysis 0 h
[14] = IGF-I surface, IGFBP-1 200 nM, proteolysis 0 h
[15] = IGF-I surface, IGFBP-1 400 nM, proteolysis 0 h

Chain of IGF-II (P01344 25-91 limits assumed): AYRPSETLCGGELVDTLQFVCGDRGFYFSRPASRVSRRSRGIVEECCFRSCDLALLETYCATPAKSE
T2 sequence (P05019 52-118): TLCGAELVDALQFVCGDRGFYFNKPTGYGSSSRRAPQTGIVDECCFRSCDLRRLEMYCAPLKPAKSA

B1: proteolysed IGFBP-1: phosphorylated IGFBP-1 after incubation with partially purified azurocidin (mixture of N- and C-terminal fragments) (protein)
chain 1: APWQCAPCSAEKLALCPPVSASCSEVTRSAGCGCCPMCALPLGAACGVATARCARGLSCRALPGEQQPLHALTRGQGACVQESDASAPHAAEAGSPESPESTEITEEELLDNFHLMAPSEEDHSILWDAI
chain 2: STYDGSKALHVTNIKKWKEPCRIELYRVVESLAKAQETSGEEISKFYLPNCNKNGFYHSRQCETSMDGEAGLCWCVYPWNGKRIPGSPEIRGDPNCQIYFNVQN
IGF-II-stimulated 3H-thymidine incorporation after addition of IGFBP-1 ([1]; IGF-II 10 ng/ml + pIGFBP-1 90 ng/ml, 6 experiments): no inhibition | kd rel to IGF-I (IGF-II; [5]): 2.51^‡ | ks rel to IGF-I (IGF-II; [5]): 0.89 | kd (rate of dissociation, over 261-360 s) (IGF-II; [6]): 15.99 ± 0.19 ×10^−4 s^−1 | ks (rate of association, over 21-120 s) (IGF-II; [6]): 15.43 ± 0.58 ×10^−3 s^−1 | kd rel to IGF-I (IGF-II; [7]): 2.39^‡ | ks rel to IGF-I (IGF-II; [7]): 1.01 | rel ks (relative to 200 nM intact pIGFBP-1) (IGF-II; [7]): 2.86*^† | kd (rate of dissociation, over 261-360 s) (IGF-II; [8]): 27.17 ± 0.12 ×10^−4 s^−1 | ks (rate of association, over 21-120 s) (IGF-II; [8]): 12.80 ± 0.08 ×10^−3 s^−1 | kd (rate of dissociation, over 261-360 s) (IGF-I [2]; [9]): 6.40 ± 0.25 ×10^−4 s^−1 | ks (rate of association, over 21-120 s) (IGF-I [2]; [9]): 17.26 ± 0.49 ×10^−3 s^−1 | rel ks (relative to 200 nM intact pIGFBP-1) (IGF-I [2]; IGF-I surface, IGFBP-1 200 nM, proteolysis 4 h): 2.96*^† | kd (rate of dissociation, over 261-360 s) (IGF-I [2]; [10]): 11.36 ± 0.05 ×10^−4 s^−1 | ks (rate of association, over 21-120 s) (IGF-I [2]; [10]): 12.69 ± 0.08 ×10^−3 s^−1 | predicted maximum response for interaction with IGF-I (IGF-I [2]): 1156±16 RU | effect of proteolysis on rate of dissociation from des(1-3)IGF-I (des(1-3)IGF-I): clearly increase | effect on IGF-II-stimulated glucose uptake [3, 11]: inhibited in a dose-response manner | inhibitory effect on IGF-II-stimulated glucose uptake compared with intact IGFBP-1 ([3]; IGF-II 10 ng/ml + IGFBP-1 20 or 80 ng/ml, P<0.001): significantly less | effect on glucose uptake alone [3]: stimulated glucose uptake | further degradation of IGFBP-1 fragments (azurocidin; 2-h incubation at 45 C): no further degradation | further degradation of IGFBP-1 fragments (azurocidin; 24-h incubation at 37 C): no further degradation

B2: intact pIGFBP-1: recombinant human phosphorylated IGFBP-1, intact (protein)
chain: APWQCAPCSAEKLALCPPVSASCSEVTRSAGCGCCPMCALPLGAACGVATARCARGLSCRALPGEQQPLHALTRGQGACVQESDASAPHAAEAGSPESPESTEITEEELLDNFHLMAPSEEDHSILWDAISTYDGSKALHVTNIKKWKEPCRIELYRVVESLAKAQETSGEEISKFYLPNCNKNGFYHSRQCETSMDGEAGLCWCVYPWNGKRIPGSPEIRGDPNCQIYFNVQN
inhibition of 3H-thymidine incorporation by pIGFBP-1 alone ([1]; without IGF-II, 4 experiments): 13-33% | reduction of affinity for IGF-I by dephosphorylation (IGF-I [4]): six fold | kd (rate of dissociation, over 261-360 s) (IGF-II; [12]): 3.48 ± 0.40 ×10^−4 s^−1 | ks (rate of association, over 21-120 s) (IGF-II; [12]): 4.47 ± 0.78 ×10^−3 s^−1 | kd (rate of dissociation, over 261-360 s) (IGF-II; [13]): 3.37 ± 0.02 ×10^−4 s^−1 | ks (rate of association, over 21-120 s) (IGF-II; [13]): 8.30 ± 0.13 ×10^−3 s^−1 | kd (rate of dissociation, over 261-360 s) (IGF-I [2]; [14]): 1.46 ± 0.19 ×10^−4 s^−1 | ks (rate of association, over 21-120 s) (IGF-I [2]; [14]): 4.29 ± 0.46 ×10^−3 s^−1 | kd (rate of dissociation, over 261-360 s) (IGF-I [2]; [15]): 1.45 ± 0.02 ×10^−4 s^−1 | ks (rate of association, over 21-120 s) (IGF-I [2]; [15]): 8.21 ± 0.14 ×10^−3 s^−1 | predicted maximum response for interaction with IGF-I (IGF-I [2]): 908±79 RU | effect on IGF-II-stimulated glucose uptake [3, 11]: inhibited in a dose-response manner | effect on glucose uptake alone [3]: no effect

Reference: patent US20100129344A1, “MEDICAL USES AND THERAPIES BASED UPON THE ACTION OF AZUROCIDIN ON IGFBP-1” (priority 2005, published 2010)
